Consider 38 molecules from PMC314469, “Protein Interaction Networks by Proteome Peptide Scanning” (PLoS Biology, 2004).

For one experiment, the target named is endophilin SH3 (SH3G2_HUMAN), Q99962. Briefly: SPOT array.
For the molecule LKVWPPRPGRWPSF [Q9NQQ2 431-444], the normalised SPOT signal, Boehringer light units (BLU); mean over the file's lines of this peptide worked out at 1090.
Consider LLSQLGRPFREYEL [Q9C095 450-463], for which the normalised SPOT signal, Boehringer light units (BLU); mean over the file's lines of this peptide stood at 0.
Turning to LLLHPRRPRLHPGT [O95141 51-64], the normalised SPOT signal, Boehringer light units (BLU); mean over the file's lines of this peptide stood at 1540.
In the case of LNSSFSRPDRPASV [P18627 187-200], the normalised SPOT signal, Boehringer light units (BLU); mean over the file's lines of this peptide worked out at 123.
For the molecule LPGEPRRPAEIYHS [Q9P006 57-70], the normalised SPOT signal, Boehringer light units (BLU); mean over the file's lines of this peptide is 44.5.
LLIIISRPARLLES [O60307 271-284] came in with a normalised SPOT signal, Boehringer light units (BLU); mean over the file's lines of this peptide of 87.4.
Consider LPETFRRPQIDPAV [Q9UJL8 67-80], for which the normalised SPOT signal, Boehringer light units (BLU); mean over the file's lines of this peptide turned out to be 17.6.
In turn, APPRLARPPRFYEA [Q9HAH7 279-292] showed a normalised SPOT signal, Boehringer light units (BLU); mean over the file's lines of this peptide of 205.
LNPDFSRPNRKYTW [P35573 181-194] had a normalised SPOT signal, Boehringer light units (BLU); mean over the file's lines of this peptide of 62.4.
As for LLDTIKRPALQGLS [Q9P2D8 4-17], the normalised SPOT signal, Boehringer light units (BLU); mean over the file's lines of this peptide is 47.1.
With LLFSLRRPSSTVTM [Q96SW7 100-113], the normalised SPOT signal, Boehringer light units (BLU); mean over the file's lines of this peptide was found to be 537.
With APPPPSRPPQPRPG [Q9NRK3 42-56], the normalised SPOT signal, Boehringer light units (BLU); mean over the file's lines of this peptide came out at 3870.
In turn, LLLGIRRPEFLSRP [Q9NWT5 57-70] came in with a normalised SPOT signal, Boehringer light units (BLU); mean over the file's lines of this peptide of 1340.
In turn, LMIHPPRPPKVLGL [P39191 481-494] had a normalised SPOT signal, Boehringer light units (BLU); mean over the file's lines of this peptide of 1020.
With LNRGPSRPRRQAGR [Q9NQA3 32-45], the normalised SPOT signal, Boehringer light units (BLU); mean over the file's lines of this peptide worked out at 207.
In turn, LLGKPKRPRSAYNV [Q00059 151-164] returned a normalised SPOT signal, Boehringer light units (BLU); mean over the file's lines of this peptide of 268.
The same measure, in the same setting: then LPARPRRPTPTMVP [Q13545 30-43], with 6910; and LPFYFKRPPINVAI [P78346 133-146], with 73.2; and LLYLPLKPPNMFPS [Q9H799 457-471], with 13.3.
Still for that read-out and setting: the same measure for LLLLLYRPPRYQIA [O60725 54-67]: 89.6.
On the same count and under the same terms, then LPEVPEKPPAGESV [Q9NVI4 527-541], with 57.1; and LLYTLRRPYFRKME [P36888 164-177], with 99; and LLSWIKRPSQRALR [Q9P145 28-41], with 568.
As to LLGPFRRPTTQLRA [P25100 499-512], the normalised SPOT signal, Boehringer light units (BLU); mean over the file's lines of this peptide was 614.
In the case of LPEELPRPRRPPPE [P22460 81-94], the normalised SPOT signal, Boehringer light units (BLU); mean over the file's lines of this peptide was found to be 150.
In turn, LLNTLKRPKRPPLK [Q96NX2 21-34] came in with a normalised SPOT signal, Boehringer light units (BLU); mean over the file's lines of this peptide of 85.
Molecule LLMVPRRPGYGTMG [Q96JZ0 14-27] displayed a normalised SPOT signal, Boehringer light units (BLU); mean over the file's lines of this peptide of 1280.
Molecule LLLPPPRPPHSDIT [Q9H6X1 45-59] returned a normalised SPOT signal, Boehringer light units (BLU); mean over the file's lines of this peptide of 1430.
Still for that read-out and setting: then LLPFPLRPPSPHSP [Q9HAF8 97-111], with 9850.
LLPGPGRPPPPPTK [Q9UJJ7 274-288] showed a normalised SPOT signal, Boehringer light units (BLU); mean over the file's lines of this peptide of 3240.
On the same count and under the same terms, the same measure for LPENFRRPQTDQAV [Q9H8X4 102-115]: 40.7; for APPQIRRPNREVRP [Q9BW62 109-122]: 638.
In turn, LLPALRRPSRASSA [O95327 190-203] yielded a normalised SPOT signal, Boehringer light units (BLU); mean over the file's lines of this peptide of 3500.
With LLMVPRRPGYGAMG [Q9H9G7 14-27], the normalised SPOT signal, Boehringer light units (BLU); mean over the file's lines of this peptide stood at 3260.
LMIIIARPARLLES [Q9BYE8 416-429] returned a normalised SPOT signal, Boehringer light units (BLU); mean over the file's lines of this peptide of 167.
The same measure, in the same setting: then LNKYLSRPKRFEVA [Q9Y648 264-277], with 212; and LLEQILRPSKFLTY [Q9P0V3 740-753], with 6.9; and LLEPPERPYRDREP [Q9HCM7 689-702], with 80.4.

For the next experiment, the target named is T1, amphyphisin SH3 (AMPH_HUMAN), P49418.
T1 chain: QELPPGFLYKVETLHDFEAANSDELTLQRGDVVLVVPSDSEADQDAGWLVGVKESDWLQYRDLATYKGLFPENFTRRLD
Briefly: SPOT array.
Consider LKVWPPRPGRWPSF [Q9NQQ2 431-444], for which the normalised SPOT signal, Boehringer light units (BLU); mean over the file's lines of this peptide was found to be 2610.
With LLSQLGRPFREYEL [Q9C095 450-463], the normalised SPOT signal, Boehringer light units (BLU); mean over the file's lines of this peptide turned out to be 204.
As to LLLHPRRPRLHPGT [O95141 51-64], the normalised SPOT signal, Boehringer light units (BLU); mean over the file's lines of this peptide worked out at 87.
Turning to LNSSFSRPDRPASV [P18627 187-200], the normalised SPOT signal, Boehringer light units (BLU); mean over the file's lines of this peptide came out at 4090.
LPGEPRRPAEIYHS [Q9P006 57-70] yielded a normalised SPOT signal, Boehringer light units (BLU); mean over the file's lines of this peptide of 19.2.
As for LLIIISRPARLLES [O60307 271-284], the normalised SPOT signal, Boehringer light units (BLU); mean over the file's lines of this peptide was 90.2.
Turning to LPETFRRPQIDPAV [Q9UJL8 67-80], the normalised SPOT signal, Boehringer light units (BLU); mean over the file's lines of this peptide turned out to be 23.1.
On the same count and under the same terms, then APPRLARPPRFYEA [Q9HAH7 279-292], with 702.
LNPDFSRPNRKYTW [P35573 181-194] came in with a normalised SPOT signal, Boehringer light units (BLU); mean over the file's lines of this peptide of 1190.
In the case of LLDTIKRPALQGLS [Q9P2D8 4-17], the normalised SPOT signal, Boehringer light units (BLU); mean over the file's lines of this peptide was 41.8.
The molecule LLFSLRRPSSTVTM [Q96SW7 100-113] returned a normalised SPOT signal, Boehringer light units (BLU); mean over the file's lines of this peptide of 54.9.
Turning to APPPPSRPPQPRPG [Q9NRK3 42-56], the normalised SPOT signal, Boehringer light units (BLU); mean over the file's lines of this peptide turned out to be 856.
Molecule LLLGIRRPEFLSRP [Q9NWT5 57-70] gave a normalised SPOT signal, Boehringer light units (BLU); mean over the file's lines of this peptide of 51.2.
The molecule LMIHPPRPPKVLGL [P39191 481-494] came in with a normalised SPOT signal, Boehringer light units (BLU); mean over the file's lines of this peptide of 450.
Turning to LNRGPSRPRRQAGR [Q9NQA3 32-45], the normalised SPOT signal, Boehringer light units (BLU); mean over the file's lines of this peptide was found to be 6720.
LLGKPKRPRSAYNV [Q00059 151-164] registered a normalised SPOT signal, Boehringer light units (BLU); mean over the file's lines of this peptide of 45.3.
For the molecule LPARPRRPTPTMVP [Q13545 30-43], the normalised SPOT signal, Boehringer light units (BLU); mean over the file's lines of this peptide turned out to be 10700.
Consider LPFYFKRPPINVAI [P78346 133-146], for which the normalised SPOT signal, Boehringer light units (BLU); mean over the file's lines of this peptide was 16.4.
Turning to LLYLPLKPPNMFPS [Q9H799 457-471], the normalised SPOT signal, Boehringer light units (BLU); mean over the file's lines of this peptide was 28.2.
Same read-out and setting: then LLLLLYRPPRYQIA [O60725 54-67], with 159; and LPEVPEKPPAGESV [Q9NVI4 527-541], with 39.6; and LLYTLRRPYFRKME [P36888 164-177], with 41.1.
LLSWIKRPSQRALR [Q9P145 28-41] returned a normalised SPOT signal, Boehringer light units (BLU); mean over the file's lines of this peptide of 28.6.
LLGPFRRPTTQLRA [P25100 499-512] registered a normalised SPOT signal, Boehringer light units (BLU); mean over the file's lines of this peptide of 336.
With LPEELPRPRRPPPE [P22460 81-94], the normalised SPOT signal, Boehringer light units (BLU); mean over the file's lines of this peptide is 102.
As to LLNTLKRPKRPPLK [Q96NX2 21-34], the normalised SPOT signal, Boehringer light units (BLU); mean over the file's lines of this peptide amounted to 443.
Consider LLMVPRRPGYGTMG [Q96JZ0 14-27], for which the normalised SPOT signal, Boehringer light units (BLU); mean over the file's lines of this peptide worked out at 816.
As to LLLPPPRPPHSDIT [Q9H6X1 45-59], the normalised SPOT signal, Boehringer light units (BLU); mean over the file's lines of this peptide is 873.
For LLPFPLRPPSPHSP [Q9HAF8 97-111], the normalised SPOT signal, Boehringer light units (BLU); mean over the file's lines of this peptide is 178.
For the molecule LLPGPGRPPPPPTK [Q9UJJ7 274-288], the normalised SPOT signal, Boehringer light units (BLU); mean over the file's lines of this peptide is 103.
The molecule LPENFRRPQTDQAV [Q9H8X4 102-115] had a normalised SPOT signal, Boehringer light units (BLU); mean over the file's lines of this peptide of 20.2.
APPQIRRPNREVRP [Q9BW62 109-122] gave a normalised SPOT signal, Boehringer light units (BLU); mean over the file's lines of this peptide of 3240.
The same measure, in the same setting: then LLPALRRPSRASSA [O95327 190-203], with 5020.
For LLMVPRRPGYGAMG [Q9H9G7 14-27], the normalised SPOT signal, Boehringer light units (BLU); mean over the file's lines of this peptide is 183.
Consider LMIIIARPARLLES [Q9BYE8 416-429], for which the normalised SPOT signal, Boehringer light units (BLU); mean over the file's lines of this peptide worked out at 335.
On the same count and under the same terms, then LNKYLSRPKRFEVA [Q9Y648 264-277], with 71.8; and LLEQILRPSKFLTY [Q9P0V3 740-753], with 29.9.
In turn, LLEPPERPYRDREP [Q9HCM7 689-702] displayed a normalised SPOT signal, Boehringer light units (BLU); mean over the file's lines of this peptide of 188.
